Where a chain is given by its changes, count along the chain named.
B1: pCART239, a variant IdeZ polypeptide of the invention (protein)
chain: MDDYQRNATEAYAKEVPHQITSVWTKGVTPPEQFTQGEDVIHAPYLAHQGWYDITKAFNGKDDLLCGAATAGNMLHWWFDQNKTEIEAYLSKHPEKQKIIFRNQELFDLKAAIDTKDSQTNSQLFNYFRDKAFPNLSARQLGVMPDLVLDMFINGYYLNVFKTQSTDVNRPYQDKDKRGGIFDAVFTRGNQTTLLTARHDLKNKGLNDISTIIKQELTEGRALALSHTYANVSISHVINLWGADFNAEGNLEAIYVTDSDANASIGMKKYFVGINAHGHVAISAKKIEGENIGAQVLGLFTLSSGKDIWQKLSGGGHHHHHH
B2: pCART243, an inactive variant IdeZ polypeptide (protein)
chain: B1 chain with C66G

Legend:
[1] = target: IgG in human serum pool from 100 individuals
[2] = target: anti-drug antibodies (ADA) in human serum

Protein | enzyme concentration at which intact IgG started to be digested, serum pool with 0.1 mg/ml pCART243 (SDS-PAGE) [1] | enzyme concentration at which scIgG are further digested into F(ab')2 and Fc fragments in serum pool (SDS-PAGE) [1] | enzyme concentration for cleavage from IgG to scIgG in serum pool (SDS-PAGE) [1] | restoration of pCART239 IgG cleavage activity in serum by 0.1 mg/ml inactive decoy (SDS-PAGE) [2]
B1 | Intact IgG started to be digested already at 0.03 µg/ml | approximately 1.9 µg/ml of enzyme | approximately 0.9 µg/ml of enzyme | 
B2 |  |  |  | should bind the inactivating ADA to the extent that the activity of pCART239 in serum is restored. This was shown to be the case

Source: patent US20260028608
